B1: NRCoV2-SR04 VHH-Fc (Fc fusion)
chain: QVQLVESGGGLVQAGGSLRLSCAASGRTFSSHTVGWYRQAPGKQRDLVAAISMGGNTNYADYADSVKGRFTISRDNAKNTLYLQMNSLKPEDTAVYYCNTAALVGNRLLPMATITWGQGTQVTVSS
notes: bivalent
B2: NRCoV2-MRed03 VHH-Fc (Fc fusion)
chain: EVQLVESGGGLVQPGGSLRLSCAAIGFTLDYYAIGWFRQAPGKEREGVSCISSSDGSTYYADSVKGRFTISRDNAKNTVYLQMNSLKPEDTAVYYCATDAFATCDSWYAQIAQYDFRGQGTQVTVSS
notes: bivalent
B3: NRCoV2-SR01 VHH-Fc (Fc fusion)
chain: EVQLVQSGGGSVQAGGSLRLSCVASGFTFDNYAIGWFRQAPGKEREGVSCISGNGGVTIYADSVKGRFTISRDNAKNLVYLQMNSLKPEDTAVYYCAATGIRSTWSVYGCSRLAGPYDYWGQGTQVTVSS
notes: bivalent
B4: NRCoV2-SR03 VHH-Fc (Fc fusion)
chain: AVQLVDSGGGLVQAGGSLRLSCAASGSIFSNNHMGWYRQAPGKQRELVAAISSGGKTNYADFAKGRFTISRDNAKNMVYLQMNSLKPEDTAVYYCNRGGWEYRSSYYIMGPHWGQGTQVTVSS
notes: bivalent
B5: NRCoV2-SR16 VHH-Fc (Fc fusion)
chain: QVQLVQSAGGLVQAGGSLRLSCVVSGTTFSRYHMGWHRQAPGKQRDFVAGISTSGAVTYADSAKGRFTISRDNAKNTVYLEMNSLKLEDTALYYCNTGGWDYRSSTFIMGLNWGQGTQVTVSS
notes: bivalent
B6: NRCoV2-SR13 VHH-Fc (Fc fusion)
chain: EVQLVESGGGLVTTGGSLRLSCATSGSRFGSKHMAWYRQAPGKQRDLVAAISSGGSTHYGSSVKGRFTISRDNAKSTVYLQMNSLNPEDTAVFYCNMGGWDYRSNTYIPGSRSDYWGQGTQVTVSS
notes: bivalent
B7: NRCoV2-MRed06 VHH-Fc (Fc fusion)
chain: EVQLVESGGGLVQAGGSLRLSCAASGFTLAYYAIGWFRQAPGKEREGVSCISSSDGSAHYADSVKGRFTISRDNAKNTVSLQMNSLKPEDTAVYYCATDSFSSCSDYESGMDFWGKGTQVTVSS
notes: bivalent
B8: NRCoV2-SR02 VHH-Fc (Fc fusion)
chain: EVQLVDSGGGLVQAGGSLRLSCTASEFTLNYYSIGWFRQSPGKEREGVSCIRYSGGGIDYADSVKGRFTISRDNAKNTVYLTMNSLKPEDTAVYYCAADRLYSRACPTAGGRNYWGQGTQVTVSS
notes: bivalent
B9: NRCoV2-14 VHH-Fc (Fc fusion)
chain: EVQLVSSGGGLVQAGGSLRLSCEASGTTFSHYAVGWYRQAPGKQREWVASISVFGSTTYGGSVAGRFTISRDNDKNTVDLQMNSLKPEDTAVYYCHAVNADIGGDYWGQGTQVTVSS
notes: bivalent VHH-Fc
B10: NRCoV2-MRed22 VHH-Fc (Fc fusion)
chain: EVQLVESGGGLVQPGGSLRLSCAASGSVFASNAMGWYRQAPGKQRELVATISSRGSTNYADSVKGRFTISRDNAKNTVYLQMNSLGPEDTAVYYCNAREFTGFDYWGQGTQVTVSS
notes: bivalent VHH-Fc
B11: NRCoV2-S2A4 VHH-Fc (Fc fusion)
chain: QVQLVQSGGGLVQAGGSLRLSCAVSGSPFRSNVMEWYRQAPGKQRELVASISTGGSRTYTDSVKGRFTISRDNAKNEAFLQMNSLKPEDTAVYYCHAAARDSHGIYLLDTWGQGTQVTVSS
notes: bivalent VHH-Fc
B12: NRCoV2-MRed20 VHH-Fc (Fc fusion)
chain: EVQLVESGGGSVQAGGSLRLSCAASGLSFSSYDMGWFRQAPGKEREFVAAIRESGSGTYYADSVKGRFTISRDNAKNTVYLQVSSLKPEDTAVYTCAAKPPFYGSGTYSTPRAYLYWGQGTQVTVSS
notes: bivalent VHH-Fc
B13: NRCoV2-S2G3 VHH-Fc (Fc fusion)
chain: QVQLVQSGGGSVQAGGSLRLSCAASGSTFGIFLMGWRRQAPGKQRELVAHITSGGATNYADSVKGRFTISRDNAKNTVYLQMNSLEPEDTAVYYCYTTKRDDASVYWGQGTQVTVSS
notes: bivalent VHH-Fc
B14: NRCoV2-S2F3 VHH-Fc (Fc fusion)
chain: EVQLVQSGGGLVQAGGSLRLSCATSVRILSVPAMGWYRQAPGKEREMVAVITSGGSTNYADSVKGRFTISRDNAKNTVYLQMNSLKLEDTAVYQCNLRDILSQPFWGQGTQVTVSS
notes: bivalent VHH-Fc
B15: NRCoV2-S2G4 VHH-Fc (Fc fusion)
chain: QVQLVQSGGGLVQAGGSLTLSCAPSGSTFSGYATNWYRQAPGKQRELVATISSDGDKNYADSVKGRFTISRDNAKNTVYLQMNSLKPEDTAVYYCNKHWWTGDWWGQGTQVTVSS
notes: bivalent VHH-Fc
B16: NRCoV2-MRed19 VHH-Fc (Fc fusion)
chain: EVQLVESGGGLVQPGGSLRLSCAASTIIFKGQTMGWFRQAPGNERELVATMTTSGSANYADSVKGRFTISRDNEKTVTLQMNSLKPEDTALYYCYMHSVYYGIDYWGKGTQVTVSS
notes: bivalent VHH-Fc
B17: NRCoV2-MRed18 VHH-Fc (Fc fusion)
chain: EVQLVESGGGLVQPGGSLRLSCAASTTVFGRNAMGWYRQAPGKERELVATVSDGGTPNYADSVKGRFTISRDNAKNTIYLQMNSLEPEDTAVYYCNYYNYYYGRNFWGQGTQVTVSS
notes: bivalent VHH-Fc
B18: NRCoV2-10 VHH-Fc (Fc fusion)
chain: QLQLQESGGGLVQPGGSLTLSCAASGNTFSRSNMHWYRQAPGAQREWVAAISSRGISTYAYSAKGRFTISRDNAKNTVSLQMNSLKPEDTAVYYCYAADDLGDYWGQGTQVTVSS
notes: bivalent VHH-Fc
B19: NRCoV2-03 VHH-Fc (Fc fusion)
chain: EVQLVSSGGGLVQAGGSLRLSCTASGITFSYYAMGWYRQAPGQPRELVASMSNMDSTIYADSVKGRFTISRDNAKTTIYLQMNNLKPEDTAVYFCNIYGPTYSTRRNEYWGQGTQVTVSS
notes: bivalent VHH-Fc
B20: NRCoV2-06 VHH-Fc (Fc fusion)
chain: EVQLVQSGGGLVQAGESLRLSCAASVSTFSSYAMGWYRQAPGKQRELVASIGFVGATYYIDSVKGRFTISRDNAKKTAYLQMNDLKPDDTAVYYCNARHYGGSEYWGQGTQVTVSS
notes: bivalent VHH-Fc

The results in this text go back to patent US20240270826A1 (NATIONAL RESEARCH COUNCIL OF CANADA, published 2024).

The target of the first assay is T1, SARS-CoV-2 S1 (aa16-685) (Wuhan) (SARS-CoV-2 Wuhan, UniProt P0DTC2 16-685).
T1 construct: NRC; FLAG, 6xHis tags
Kind of assay: ELISA, coated antigen, apparent EC50. Background: An ELISA detects its analyte on a solid surface through an enzyme-linked reagent.
The EC50 is the concentration giving half of the maximal effect. On to B1, for which the EC50 was 250 pM.
The same measure, in the same setting: for B2 the value was 480 pM; for B3, 230 pM; for B4, 200 pM.
The same measure, in the same setting: the same measure for B5: 2700 pM.
As to B6, the concentration for a half-maximal effect (EC50) was 430 pM.
On the same count and under the same terms, the same measure for B7: 590 pM; for B8: 130 pM.

Another assay has as its target T2, SARS-CoV-2 S1-NTD (aa16-305) (SARS-CoV-2 Wuhan, UniProt P0DTC2 16-305). Kind of assay: ELISA, coated antigen, apparent EC50.
Consider B1, for which the concentration for a half-maximal effect (EC50) is 170 pM.
On the same count and under the same terms, the same measure for B2: 700 pM; for B3: 190 pM; for B4: 170 pM.
The same measure, in the same setting: for B5 the value was 360 pM; for B6, 230 pM; for B7, 400 pM.
Regarding B8, the concentration giving a half-maximal response (EC50) was 340 pM.

A further assay addresses T3, SARS-CoV-2 spike trimer S (Wuhan, SmT1) (SARS-CoV-2 Wuhan).
T3 construct: extracellular domain
Kind of assay: ELISA, coated antigen, apparent EC50.
Turning to B1, the 50% effective concentration (EC50) was determined as 200 pM.
Still for that read-out and setting: the same measure for B2: 200 pM; for B3: 130 pM; for B4: 160 pM.
Turning to B5, the EC50 came to 590 pM.
On the same count and under the same terms, for B6 the value was 430 pM.
Same read-out and setting: the same measure for B7: 400 pM; for B8: 110 pM.

A further assay has as its target T4, SARS-CoV-2 S on CHO-S cells (SARS-CoV-2, UniProt P0DTC2 14-1273).
T4 construct: whole, on cells
Nature of the assay: flow cytometry, CHO-S cells. Background: Flow cytometry measures light scatter and fluorescence of single cells or particles in a stream.
B9 came in with a Bmax of 18800 and an EC50 of 900 pM.
On the same counts, the results for B10 are 5320 and 200 pM.
In turn, B11 registered a Bmax of 6860 and an EC50 of 100 pM.
On the same counts, the results for B12 are 6660 and 6500 pM.
Turning to B13, the Bmax is 7530 and the EC50 turned out to be 300 pM.
Taken in the same sequence, the figures for B14 were 6950 and 2700 pM.
On the same counts, the results for B15 are 6900 and 300 pM.
Taken in the same sequence, the figures for B16 were 5480 and 1300 pM.
B17 yielded a Bmax of 10200 and a concentration giving a half-maximal response (EC50) of 900 pM.
On the same counts, the results for B18 are 28000 and 1300 pM.
On the same counts, the results for B19 are 16200 and 78900 pM.
Taken in the same sequence, the figures for B20 were 13600 and 8100 pM.

A further assay addresses T1, SARS-CoV-2 S1 (aa16-685) (Wuhan). Kind of assay: ELISA.
Take B10: the binding result is recorded as “no binding (tested: 13 nM)”.
The same measure, in the same setting: for B11 the value was “no binding (tested: 13 nM)”; for B12, “no binding (tested: 13 nM)”.
On the same count and under the same terms, the same measure for B13: “no binding (tested: 13 nM)”; for B14: “no binding (tested: 13 nM)”.
Still for that read-out and setting: for B15 the value was “no binding (tested: 13 nM)”; for B16, “no binding (tested: 13 nM)”; for B17, “no binding (tested: 13 nM)”.

The next assay concerns the target T2, SARS-CoV-2 S1-NTD (aa16-305). Kind of assay: ELISA.
For the molecule B9, the binding result was “no binding (tested: 13 nM)”.
On the same count and under the same terms, for B10 the value was “no binding (tested: 13 nM)”; for B11, “no binding (tested: 13 nM)”; for B12, “no binding (tested: 13 nM)”.
In the case of B13, the binding result was “no binding (tested: 13 nM)”.
As to B14, the binding result was “no binding (tested: 13 nM)”.
Same read-out and setting: the same measure for B15: “no binding (tested: 13 nM)”.
The same measure, in the same setting: for B16 the value was “no binding (tested: 13 nM)”; for B17, “no binding (tested: 13 nM)”.
Same read-out and setting: for B18 the value was “no binding (tested: 13 nM)”; for B19, “no binding (tested: 13 nM)”.
With B20, the binding result is on record as “no binding (tested: 13 nM)”.

A further assay deals with SARS-CoV spike (S) (SARS-CoV, UniProt P59594 14-1195). Nature of the assay: ELISA.
Consider B9, for which the binding result was “no binding (tested: 13 nM)”.
Same read-out and setting: for B10 the value was “no binding (tested: 13 nM)”; for B18, “no binding (tested: 13 nM)”.
B19: the binding result was “no binding (tested: 13 nM)”.
Same read-out and setting: for B20 the value was “no binding (tested: 13 nM)”.

A further assay concerns the target T5, SARS-CoV-2 S2 (aa686-1208) (Wuhan) (SARS-CoV-2 Wuhan, UniProt P0DTC2 686-1208).
T5 construct: NRC; FLAG, 6xHis tags
Kind of assay: ELISA.
On to B9, for which the binding result is on record as “no binding (tested: 13 nM)”.
Take B18: the binding result is given as “no binding (tested: 13 nM)”.
B19: the binding result is recorded as “no binding (tested: 13 nM)”.
For the molecule B20, the binding result was “no binding (tested: 13 nM)”.
